Measured values reported in paper PMC13374049 (Cell host & microbe, 2026).

Molecular target: full-length Measles virus hemagglutinin (H) on transfected HEK293T cells (Measles virus, strain IC323, UniProt Q786F2)
Assay: flow cytometry on cells

Chain of full-length Measles virus hemagglutinin (H) on transfected HEK293T cells (Q786F2 whole entry): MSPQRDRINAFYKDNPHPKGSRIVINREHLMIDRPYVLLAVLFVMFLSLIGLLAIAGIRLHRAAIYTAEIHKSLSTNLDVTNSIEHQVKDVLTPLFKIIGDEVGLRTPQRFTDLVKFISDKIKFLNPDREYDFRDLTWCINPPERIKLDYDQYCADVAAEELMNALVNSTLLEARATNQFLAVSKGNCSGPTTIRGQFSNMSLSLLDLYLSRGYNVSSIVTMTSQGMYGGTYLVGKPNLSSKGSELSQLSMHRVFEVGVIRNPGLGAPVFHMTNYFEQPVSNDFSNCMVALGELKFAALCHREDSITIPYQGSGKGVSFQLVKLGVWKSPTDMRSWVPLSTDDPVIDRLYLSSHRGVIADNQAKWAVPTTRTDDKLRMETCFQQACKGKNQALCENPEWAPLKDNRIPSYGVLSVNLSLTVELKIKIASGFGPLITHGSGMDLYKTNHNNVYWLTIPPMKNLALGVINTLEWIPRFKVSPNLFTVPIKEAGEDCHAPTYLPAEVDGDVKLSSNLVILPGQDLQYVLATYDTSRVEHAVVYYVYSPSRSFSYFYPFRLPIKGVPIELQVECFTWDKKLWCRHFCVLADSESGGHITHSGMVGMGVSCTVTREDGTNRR

B1: human anti-MeV H monoclonal antibody 4D08 (IgG1) (antibody, V domains shown)
VH: QMQLVQSGAEVKKPGASVKVSCKASGYTFTSYAMHWVRQAPGQRLEWMGWINAGNGKTEYSQRFQGRVTITRDTSASTVYMELNSLRSEDTAVYFCARDAYDFWSGYGNWGSNYYYFYMDAWGKGTTVTVSS
VL: EIVMTQSPPSLSASVGDRVTITCRASQSINYYLNWYQQKPGKAPKLLIYAASGLQSGVPSRFSGSGSGTDFTLTISSLQPEDLATYYCQQTYSTPVTFGQGTKLEII
- binding result: binds

B2: human anti-MeV H monoclonal antibody 1C02 (IgG1) (antibody, V domains shown)
VH: EVQLLESGAEVKKPGSSVKVSCKASGGTFSSYGISWVRQAPGQGLEWMGGIIPIFGTANYAQKFRGRVTITADKSTSTAYMELSSLRSEDTAVYYCARERITVAGINYYYGMDVWGQGTTVTVSS
VL: RPVLTQPPSVSGAPGQRVTISCTGSSSNIGAGYDVHWYQQLPGTAPKLLIYGDSNRPSGVPDRFSGSKSGTSASLAITGLQAEDEADYYCQSYDSSLSGVVFGGGTKLTVL
- binding result: binds
